The assay addresses CK2β 1-193 (Homo sapiens, UniProt P67870). The assay can be described thus: microscale thermophoresis.

CK2β 1-193, sequence (P67870 1-193): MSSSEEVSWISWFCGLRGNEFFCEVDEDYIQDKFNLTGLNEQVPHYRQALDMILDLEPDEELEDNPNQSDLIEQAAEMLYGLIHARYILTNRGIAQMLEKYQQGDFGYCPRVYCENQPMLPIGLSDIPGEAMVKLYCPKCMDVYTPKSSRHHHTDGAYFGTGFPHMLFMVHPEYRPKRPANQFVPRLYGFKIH

B1: CK2α 1-335 (protein)
chain: MSGPVPSRARVYTDVNTHRPREYWDYESHVVEWGNQDDYQLVRKLGRGKYSEVFEAINITNNEKVVVKILKPVKKKKIKREIKILENLRGGPNIITLADIVKDPVSRTPALVFEHVNNTDFKQLYQTLTDYDIRFYMYEILKALDYCHSMGIMHRDVKPHNVMIDHEHRKLRLIDWGLAEFYHPGQEYNVRVASRYFKGPELLVDYQMYDYSLDMWSLGCMLASMIFRKEPFFHGHDNYDQLVRIAKVLGTEDLYDYIDKYNIELDPRFNDILGRHSRKRWERFVHSENQHLVSPEALDFLDKLLRYDHQSRLTAREAMEHPYFYTVVKDQARMG
modifications: CK2β fluorescently labelled (RED-NHS)
The molecule B1 yielded a Kd of 12 nM.

The values are drawn from paper PMC7418559 (2020).
